Here are results for two molecules from US20250026820A1 (WUHAN YZY BIOPHARMA, published 2025).

Experiment [1] deals with T1, TGFβ1 protein (GenScript Z03411) (human, UniProt P01137 279-390).
T1 construct: also called human TGF-β1; TGFβ1 antigen
The experiment in a line: ELISA; plate coated with human TGF-β1; antibody titrated; HRP anti-human Fc. The procedure: (§1) A microplate was coated with 2 μL/well of the human TGF-β1/2/3 protein solution, respectively, at 4° C. overnight; the supernatant was discarded, 300 μL of a blocking solution (PBS containing 3% BSA) was added to each well, and the plate was blocked at 37° C. for 2 h; the antibodies were gradiently diluted, and the diluent was PBS containing 1% BSA. For example, the initial concentration of the antibody dilution was 500 nM, and diluted 10-fold to obtain 8 concentration gradients. The diluted antibody was added to the well of the microplate at 200 μL per well, the plate was left to stand and incubated at room temperature for 2 h, and the supernatant was discarded; the plate was washed for 3 times with 200 μL/well PBST (PBS containing 0.1% Tween 20); a diluted HRP-labeled anti-human Fc secondary antibody (SIGMA, A8667) was added, the secondary antibody was used after a 1:20000 dilution, the diluent was PBS containing 1% BSA, the volume was 100 μL/well, and the plate was incubated at room temperature for 1 h; the plate was washed for 5 times with 200 μL/well PBST; a TMB chromogenic solution (BD, 55214) was added at 100 μL/well for color development at 37° C. for 8 min. 2 M HCl stop solution was added at 100 μL/well. After the addition of the stop solution, the 450 nm values were read using a microplate reader within 30 min. Data were analyzed using GraphPad Prism 6.0 software and avidity fitting was performed to give EC50 values.
On the technique in general: In an ELISA, binding on a coated surface is turned into a signal by an enzyme label.

The target of experiment [2] is T2, TGFβ2 protein (GenScript Z03429) (human, UniProt P61812 303-414).
T2 construct: also called human TGF-β2
T2 sequence (looked up): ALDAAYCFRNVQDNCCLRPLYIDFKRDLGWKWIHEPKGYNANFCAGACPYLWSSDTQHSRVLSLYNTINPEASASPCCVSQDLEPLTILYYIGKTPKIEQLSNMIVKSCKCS
The experiment is described as follows: ELISA; plate coated with human TGF-β2; antibody titrated; HRP anti-human Fc. As for the experimental part:
as §1

Experiment [3] has as its target T3, TGFβ3 protein (GenScript Z03430) (human, UniProt P10600 301-412).
T3 construct: also called human TGF-β3
T3 sequence (looked up): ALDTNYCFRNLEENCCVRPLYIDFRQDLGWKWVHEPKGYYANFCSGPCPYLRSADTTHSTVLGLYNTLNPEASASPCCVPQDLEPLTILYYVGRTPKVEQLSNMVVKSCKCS
The experiment in a line: ELISA; plate coated with human TGF-β3; antibody titrated; HRP anti-human Fc. As for the experimental part:
as §1

For experiment [4], the target named is T1, TGFβ1 protein (GenScript Z03411). The experiment in a line: cell-based or functional assay.

The term EC50 denotes the concentration that produces a half-maximal response.

T1 sequence (P01137 279-390 limits assumed, one chain of several): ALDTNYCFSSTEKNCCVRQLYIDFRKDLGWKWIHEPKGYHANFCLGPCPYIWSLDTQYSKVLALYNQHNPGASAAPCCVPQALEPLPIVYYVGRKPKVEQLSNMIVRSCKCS

B1: B3D2 anti-TGFβ single domain heavy-chain antibody (variable region, linker peptide, human IgG1 heavy chain constant region) (Fc fusion)
heavy: QLQLVESGGGLVQPGGSLTLSCLASGFTFSHYPMSWVRQAPGKGLEWVSVIGSDGAIKHYSDSVKGRFAISRDNAKNTLYLQMNSLKPEDTAVYYCAEGDSRYVRNRARGQGTQVTVSS
notes: not shown: linker peptide (GGGGS)n, n=1, 2 or 3; human IgG1 heavy chain constant region, GenBank No. AK303185.1
For B1, the EC50 in experiment [1] amounted to 69.2 nM; in experiment [2], 27.6 nM; in experiment [3] it was 1.19 nM.

B2: B1B8-Fc-B1B8 (Fc fusion)
heavy: EVQVVESGGGLVQPGGSLTLSCVASGFAFSFTPMRWVRQAPGKGLEWVSSISIRGDTTDYADSVKGRFTISRDNAKNTLYLQMNSLKPEDTAVYYCSRGSSISTSTERTQGTQVTVSSGGGGSDKTHTCPPCPAPPVAGPSVFLFPPKPKDTLMISRTPEVTCVVVDVSHEAPEVQFNWYVDGVEVHNAKTKPREEQFNSTFRVVSVLTVVHQDWLNGKEYKCKVSNKGLPAPIEKTISKTKGQPREPQVYTLPPSRDELTKNQVSLTCLVKGFYPSDIAVEWESNGQPENNYKTTPPVLDSDGSFFLYSKLTVDKSRWQQGNVFSCSVMHEALHNHYTQKSLSLSPGGGGGSEVQVVESGGGLVQPGGSLTLSCVASGFAFSFTPMRWVRQAPGKGLEWVSSISIRGDTTDYADSVKGRFTISRDNAKNTLYLQMNSLKPEDTAVYYCSRGSSISTSTERTQGTQVTVSS
As for B2, in experiment [4], the “EC50 of TGF-β1 inhibitory activity (TF-1 cell proliferation)” value was 0.813 nM.
